Target: Nn8 (fraction 8 from N. nivea venom) (Naja nivea, UniProt P01390, biotin (site not stated))
Test: BLI

Chain of Nn8 (fraction 8 from N. nivea venom) (P01390 whole entry, looked up): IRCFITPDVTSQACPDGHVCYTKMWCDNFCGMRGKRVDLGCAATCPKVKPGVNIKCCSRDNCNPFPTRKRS

B1: TPL1158_01_C09 (VHH)
VHH: QVQLQESGGGLVQPGGSLRLSCAASGDIGGLKQMGWYRQAPGHQRELVAVKRNENEANYTESVKGRFTISRDNARKMVYLQMNSLKPEDTAVYYCNAVVGNWYTSGYYEDTYWGQGTQVTVSS
Kd: 63 nM
